We go through three molecules from patent publication US20210032351A1 (XDCEXPLORER SHANGHAI, published 2021).

The target of assay [1] is T1, human EGFRvIII-hFc protein (human, UniProt P00533 25-645).
T1 construct: extracellular domain; made in HEK293 cells, purified on protein A; also called immunogen A; hFc-tagged EGFRvIII protein; not shown: human IgG Fc fragment (hFc) of the pCpC vector
The assay is described as follows: ELISA, coated EGFRvIII-hFc, antibody 0.1 nM. The procedure, abridged: (§1)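 EGFRvIII-hFc coated at 1.0 μg/mL in PBS overnight at 4° C, blocked with PBS/0.01% Tween20/1% BSA for 2 h at room temperature. Purified anti-EGFRvIII antibody bound 2 h at 37° C, then HRP-labeled secondary 2 h at 37° C. TMB developed 30 min, stopped with 1.0N HCl, A450 nm read.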
On the technique in general: An ELISA detects its analyte on a solid surface through an enzyme-linked reagent.

In assay [2] the target is T1, human EGFRvIII-hFc protein. The assay is described as follows: ELISA, coated EGFRvIII-hFc, antibody 1 nM. The procedure, abridged:
as §1

The target of assay [3] is T1, human EGFRvIII-hFc protein. Put plainly: ELISA, coated EGFRvIII-hFc, antibody 0.01 nM. The procedure, abridged:
as §1

Assay [4] deals with T1, human EGFRvIII-hFc protein. Put plainly: ELISA, coated EGFRvIII-hFc, antibody 0.0001 nM. Put shortly: as §1
Assay [5] has as its target T1, human EGFRvIII-hFc protein. The assay is described as follows: ELISA, coated EGFRvIII-hFc, antibody 10 nM. The procedure, abridged:
as §1

Assay [6] has as its target T1, human EGFRvIII-hFc protein. The assay is described as follows: ELISA, coated EGFRvIII-hFc, antibody 100 nM. The procedure, abridged: as §1
Assay [7] deals with T1, human EGFRvIII-hFc protein. Put plainly: ELISA, plate coated with human EGFRvIII-hFc, HRP secondary antibody, absorbance at 450 nm. As to the method: (§2) The purified immunogen A (EGFRvIII-hFc) obtained in example 1 (for the preparation method, see step (I) in example 1) is diluted with PBS to a final concentration of 1.0 μg/mL, and then added to a 96-well ELISA plate at 100 μl/well. The plate is sealed with a plastic film and incubated at 4° C. overnight. The next day, the plate is washed twice with a plate washing solution [PBS+0.01% (v/v) Tween20], and added with a blocking solution [PBS+0.01% (v/v) Tween20+1% (w/w) BSA] for blocking 2 hours at room temperature. The blocking solution is discarded, and the purified EGFRvIII antibody obtained in example 2 is added at 100 μl/well. The plate is incubated for 2 hours at 37° C., and then washed 3 times with the plate washing solution [PBS+0.01% (v/v) Tween20]. The plate is added with an HRP (horseradish peroxidase) labeled secondary antibody (purchased from Sigma), incubated at 37° C. for 2 hours, and then washed 3 times with the plate washing solution [PBS+0.01% (v/v) Tween20]. The plate is added with 100 μl of TMB substrate/well, incubated for 30 minutes at room temperature, and then added with 100 μl of stopping solution (1.0N HCl)/well. A450 nm value is read using an ELISA plate reader (SpectraMax 384plus, purchased from Molecular Device), and the results are shown in FIG. 6 and table 10.

Assay [8] concerns the target T2, human EGFR protein (wild-type), on cells (human, UniProt P00533 25-1210).
T2 construct: whole, on cells; transfected on CHO-K1 cells; endogenous on the human cell lines; the cell is named under assay; also called wild-type EGFR; hEGFR
The assay is described as follows: FACS on A431 cells. As to the method: (§3) The cells are washed twice with the HBSS buffer and are counted, and then the cells are diluted with the HBSS buffer to 2×10⁶ cells/ml, added with 1% goat serum blocking solution, with the percentage being the mass percentage, and incubated on ice for 30 minutes, and then centrifugally washed twice with the HBSS buffer. The collected cells are suspended to 2×10⁶ cells/mL with an FACS buffer (HBSS+1% BSA, with the percentage being the mass percentage), added to a 96-well FACS reaction plate at 100 μL/well, then added with 100 μL/well of the purified EGFRvIII antibody (samples to be tested) obtained in example 2, and incubated on ice for 2 hours. The plate is centrifugally washed twice with the FACS buffer, added with 100 μL/well of a fluorescence (Alexa 488) labeled secondary antibody (purchased from Invitrogen), and then incubated on ice for 1 hour. […] The cells are suspended in 100 μL of the FACS buffer, and the results are detected and analyzed by FACS (FACS Calibur, purchased from BD). Data analysis is performed by using the software (CellQuest) to obtain the mean fluorescence intensity (MFI) of the cells. Data is further analyzed by using the software (GraphPad Prism5) to perform data fitting and calculate EC50. […]

The target in assay [9] is T1, human EGFRvIII-hFc protein. Put plainly: ELISA, coated EGFRvIII-hFc, antibody 0.001 nM. The procedure, abridged:
as §1

For assay [10], the target named is T3, human EGFRvIII-hFc protein (human, UniProt P00533 25-645).
T3 construct: extracellular domain; also called immunogen A; hFc-tagged EGFRvIII protein; not shown: human IgG Fc fragment (hFc) of the pCpC vector
The assay is described as follows: ELISA, EGFRvIII-hFc coated. The procedure:
as §2, with “temperature. […]” for “temperature. The blocking solution is discarded, and the purified EGFRvIII antibody obtained in example 2 is added at 100 μl/well.”, “FIG. 11” for “FIG. 6”, “table 19.” for “table 10.”

For assay [11], the target named is T4, human wild-type EGFR protein on the cell surface (human, UniProt P00533 25-1210).
T4 construct: whole, on cells; Endogenous on A431, HEB, U87MG cells and normal human primary hepatocytes; transfected on CHOk1-EGFR cells; The cell is named under assay; also called A431; HEB
Put plainly: FACS on A431 cells. As to the method:
as §3

Assay [12] addresses T5, human EGFRvIII protein on the cell surface (human, UniProt P00533 25-1210).
T5 construct: whole, on cells; the cell line is named under assay; also called hEGFRvIII; U87MG-hEGFRvIII
Put plainly: FACS on U87MG-hEGFRvIII cells.

For assay [13], the target named is T3, human EGFRvIII-hFc protein. Put plainly: ELISA, EGFRvIII-hFc coated; weak binding, maximum OD450 0.79 against 3.03 for wild type and 0.08 for hIgG. The procedure:
The plate is incubated for 2 hours at 37° C., and then washed 3 times with the plate washing solution [PBS+0.01% (v/v) Tween20]. The plate is added with an HRP (horseradish peroxidase) labeled secondary antibody (purchased from Sigma), incubated at 37° C. for 2 hours, and then washed 3 times with the plate washing solution [PBS+0.01% (v/v) Tween20]. The plate is added with 100 μl of TMB substrate/well, incubated for 30 minutes at room temperature, and then added with 100 μl of stopping solution (1.0N HCl)/well. A450 nm value is read using an ELISA plate reader (SpectraMax 384plus, purchased from Molecular Device), and the results are shown in FIG. 11 and table 19.

For assay [14], the target named is T5, human EGFRvIII protein on the cell …. Put plainly: FACS on CHOk1-EGFRvIII cells. As to the method: (§4) The desired cells are subjected to an expanded culture to 90% confluence in a T-75 cell culture flask; the medium is sucked out, and the cells are washed twice with a HBSS buffer (Hanks Balanced Salt Solution) (purchased from Invitrogen), and then treated with an enzyme-free cell dissociation solution (Versene solution: purchased from Life Technology) and collected. The cells are washed twice with the HBSS buffer and are counted, and then the cells are diluted with the HBSS buffer to 2×10⁶ cells/ml, added with 1% goat serum blocking solution, with the percentage being the mass percentage, and incubated on ice for 30 minutes, and then centrifugally washed twice with the HBSS buffer. The collected cells are suspended to 2×10⁶ cells/mL with an FACS buffer (HBSS+1% BSA, with the percentage being the mass percentage), added to a 96-well FACS reaction plate at 100 μL/well, then added with 100 μL/well of the purified EGFRvIII antibody (samples to be tested) obtained in example 2, and incubated on ice for 2 hours. The plate is centrifugally washed twice with the FACS buffer, added with 100 μL/well of a fluorescence (Alexa 488) labeled secondary antibody (purchased from Invitrogen), and then incubated on ice for 1 hour. The plate is centrifugally washed 3 times with the FACS buffer, added with 100 μL/well of a fixing solution [4% (v/v) paraformaldehyde] for suspending the cells, and centrifugally washed twice with the FACS buffer after 10 minutes. The cells are suspended in 100 μL of the FACS buffer, and the results are detected and analyzed by FACS (FACS Calibur, purchased from BD). Data analysis is performed by using the software (CellQuest) to obtain the mean fluorescence intensity (MFI) of the cells. Data is further analyzed by using the software (GraphPad Prism5) to perform data fitting and calculate EC50. […] A431 cells (human epidermal cell cancer cell lines) have a large amount of wild-type EGFR protein expressed on the surface thereof.

Assay [15] deals with T4, human wild-type EGFR protein on the …. Put plainly: FACS on CHOk1-EGFR cells. The procedure: as §4, with “The” for “The desired cells are subjected to an expanded culture to 90% confluence in a T-75 cell culture flask; the medium is sucked out, and the cells are washed twice with a HBSS buffer (Hanks Balanced Salt Solution) (purchased from Invitrogen), and then treated with an enzyme-free cell dissociation solution (Versene solution: purchased from Life Technology) and collected. The”, “thereof. […] U87MG cells (human glioma cell lines) have a small amount of wild-type EGFR protein expressed on the surface thereof, while HEB cells (human glioma cell lines) have a high level of wild-type EGFR protein expression on the surface thereof.” for “thereof.”

B1: Murine anti-7E5 (antibody, V domains shown)
VH: EIQLQQSGPELVKPGASVKVSCKASGYSFTDYNMYWVKQSHGKSLEWIGYVDPSNGGTNYNQKFKGKATLTVDKSSSTAFMHLNSLTSEDSAVYYCARGFFDYWGQGTTLTVSS
VL: DIVMTQSPSSLTVTAGEKVTMSCKSSQSLLNSGNQKNYLTWYQQKPGQPPKLLIYWASNRESGVPDRFTGSGSGKDFTLTISSVQAEDLAVYYCQNDYRYPVTFGAGTKLELK
notes: murine hybridoma antibody; also called 7E5-2A9; murine anti-7E5-2
As for B1, the OD450 nm in assay [1] was found to be 1.68; in assay [2] it was 3.18; in [3], 0.35; in assay [4], 0.15; in assay [5] it was 3.14; in assay [6], 3.36. Also, the OD450 nm in [9] was found to be 0.17. Further, the EC50 (read off the curve) (usually the concentration needed to bring the measured effect to its halfway point) in assay [7] was around 0.02 nM. In assay [8], the binding result is listed as “no binding”.

B2: Chimeric antibody 7E5 (antibody, human IgG1, V domains shown)
VH: EIQLQQSGPELVKPGASVKVSCKASGYSFTDYNMYWVKQSHGKSLEWIGYVDPSNGGTNYNQKFKGKATLTVDKSSSTAFMHLNSLTSEDSAVYYCARGFFDYWGQGTTLTVSS
VL: DIVMTQSPSSLTVTAGEKVTMSCKSSQSLLNSGNQKNYLTWYQQKPGQPPKLLIYWASNRESGVPDRFTGSGSGKDFTLTISSVQAEDLAVYYCQNDYRYPVTFGAGTKLELK
notes: also called clone 7E5-2A9
With B2, in [10], the “OD450 nm at 0.0001 nM antibody” value was found to be 0.09 OD450, the “OD450 nm at 0.001 nM antibody” value worked out at 0.08 OD450, the “OD450 nm at 0.01 nM antibody” value amounted to 0.19 OD450 and the “OD450 nm at 0.1 nM antibody” value was determined as 1.18 OD450. In [10], the “OD450 nm at 1 nM antibody” value was 3.45 OD450, the “OD450 nm at 10 nM antibody” value is 3.63 OD450 and the “OD450 nm at 100 nM antibody” value worked out at 3.6 OD450. Moreover, the binding result in [11] was “no binding”. Moreover, it took 1.9 nM to reach a half-maximal effect in assay [12] (EC50).

B3: c75G7C6-4 (antibody, human IgG1, V domains shown)
VH: EVQLQQSGPELVKPGASVKIPCKASGYTFTDYNMDWVKQSHGKSLEWIGDINPNNGDTIYNQKFKGKATLTVDKSSSTAYMELRSLTSEDTAVYYCARGDYSGYYPVYYAMDYWGQGTSVTVSS
VL: ENVLTQSPAIMSASPGEKVTMTCRASSSVSSSYLHWYQQKSGASPKLWIFSTSNLAAGVPARFSGSGSGTSYSLTVSSVEAEDAATYYCQQYSGYPLTFGAGTKLELK
notes: Chimeric 75G7C6 with DG of heavy chain CDR3 mutated to SG; Human IgG1/kappa; also called mutant chimeric antibody DG/SG
On to B3, for which, in assay [10], the “Maximum OD450 value” worked out at 0.79 OD450. The EC50 (as a rule, the concentration needed to bring the measured effect to its halfway point) in [13] is 7.94 nM; in assay [14], 24 nM. Further, the results for the “Maximum mean fluorescence intensity” value in assay [14] and in [15] were 52600 MFI and 8970 MFI, respectively.
